Data: doi:10.1101/2020.08.21.260323

What was measured:
[1] = molecular target: SpaKC, class III lanthipeptide synthetase (LanKC) homolog from S. sparsogenes ATCC 25498 (S. sparsogenes ATCC 25498); experiment: MST
[2] = molecular target: SpaKC-SpaF complex (S. sparsogenes ATCC 25498); experiment: MST
[3] = molecular target: SpaF, FMN-dependent cysteine decarboxylase of the spa gene cluster (S. sparsogenes ATCC 25498); experiment: crystal structure

Row | Kd [1] | Kd [2] | stoichiometry N [3] | Substance
1 | 275 nM |  |  | SpaA leader peptide
2 | 217 nM | 94 nM |  | SpaA precursor peptide
3 | 182 nM |  | 12 | SpaF, FMN-dependent cysteine decarboxylase of the spa gene cluster (enzyme)
4 | 2270 nM |  |  | TvaF, cysteine decarboxylase from thioviridamide biosynthesis (enzyme)
